T1: Aurora-A kinase domain 122–403 C290A,C393A (UniProt O14965 122-403, C290A | C393A)
T1 construct: Aurora-A Ser/Thr kinase, kinase domain residues 122-403 with C290A and C393A; also called Aurora-A 122–403, C290A, C393A
T1 sequence (looked up): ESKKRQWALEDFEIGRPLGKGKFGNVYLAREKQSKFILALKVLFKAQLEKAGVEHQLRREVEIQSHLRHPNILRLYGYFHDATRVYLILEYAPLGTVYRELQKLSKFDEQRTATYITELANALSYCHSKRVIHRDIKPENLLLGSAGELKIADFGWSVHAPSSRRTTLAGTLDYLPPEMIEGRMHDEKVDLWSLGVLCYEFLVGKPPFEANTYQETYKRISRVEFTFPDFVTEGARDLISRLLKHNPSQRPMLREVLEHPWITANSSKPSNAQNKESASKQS


Assays:
[1] = target: N-myc peptide 47-66 (Homo sapiens) (UniProt P04198); conditions: cited from earlier work
[2] = target: T1, Aurora-A kinase domain 122–403 …; assay: NMR titration; 1H-15N HSQC of 15N-labelled N-myc constructs (150-315 uM); unlabelled Aurora-A kinase domain (305-400 uM stock) added up to [N-myc]:[Aurora-A] 1:1.4; 20 mM (K/H)3PO4 pH 6.5, 150 mM NaCl, 2 mM beta-mercaptoethanol, 1% glycerol, 5 mM MgCl2, 5 mM ADP; 25°C stated for N-myc TAD; conditions: both partners purified

Fbxw7–Skp1, sequence (Q969H0 whole entry): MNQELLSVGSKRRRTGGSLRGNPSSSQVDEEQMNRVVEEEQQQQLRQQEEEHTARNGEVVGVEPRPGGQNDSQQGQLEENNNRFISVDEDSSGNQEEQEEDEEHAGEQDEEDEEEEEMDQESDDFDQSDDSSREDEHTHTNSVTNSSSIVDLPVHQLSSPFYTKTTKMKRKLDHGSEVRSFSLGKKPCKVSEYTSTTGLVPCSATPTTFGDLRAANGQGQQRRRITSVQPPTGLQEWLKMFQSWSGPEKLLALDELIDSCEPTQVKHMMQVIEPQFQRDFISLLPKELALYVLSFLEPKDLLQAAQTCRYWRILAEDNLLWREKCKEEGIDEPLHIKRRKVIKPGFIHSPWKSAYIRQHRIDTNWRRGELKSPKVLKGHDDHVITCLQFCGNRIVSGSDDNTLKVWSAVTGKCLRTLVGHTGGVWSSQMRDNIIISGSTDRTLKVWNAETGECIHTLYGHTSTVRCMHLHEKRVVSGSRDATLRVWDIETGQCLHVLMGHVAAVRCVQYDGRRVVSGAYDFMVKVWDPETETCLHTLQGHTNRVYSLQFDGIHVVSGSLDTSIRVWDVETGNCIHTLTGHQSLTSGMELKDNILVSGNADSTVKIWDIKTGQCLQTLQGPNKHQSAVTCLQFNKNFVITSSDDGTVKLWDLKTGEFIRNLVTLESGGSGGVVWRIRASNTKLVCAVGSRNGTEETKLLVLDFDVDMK
Fbxw7–Skp1, sequence (P63208 2-163, further chain): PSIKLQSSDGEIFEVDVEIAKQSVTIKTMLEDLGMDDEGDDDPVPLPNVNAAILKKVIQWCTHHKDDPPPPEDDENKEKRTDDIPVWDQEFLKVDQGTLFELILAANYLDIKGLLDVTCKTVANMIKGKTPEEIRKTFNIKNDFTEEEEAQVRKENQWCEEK

| binding result [2] | Molecule | Kd [1] [nM] |
| --- | --- | --- |
|  | Fbxw7–Skp1 (from UniProt Q969H0) | < 10 |
| binds | N-myc_(1–137) TAD (domain or fragment, whole N-myc is said to have 464 residues; 15N-labelled for the NMR titration; also called N-myc TAD; not shown: His-NusA, N-terminal, cleaved) GAMMPSCSTSTMPGMICKNPDLEFDSLQPCFYPDEDDFYFGGPDSTPPGEDIWKKFELLPTPPLSPSRGFAEHSSEPPSWVTEMLLENELWGSPAEEDAFGLGGLGGLTPNPVILQDCMWSGFSAREKLERAVSEKLQHG |  |
| binds | N-myc_(64–137) (domain or fragment, 15N-labelled for the NMR titration; also called C-terminal truncation of the TAD; not shown: His-NusA, N-terminal, cleaved) GAMGSRGFAEHSSEPPSWVTEMLLENELWGSPAEEDAFGLGGLGGLTPNPVILQDCMWSGFSAREKLERAVSEKLQHG |  |
